Each block holds one binder with its values, some of them ahead of it.
What was measured:
[1] = molecular target: the molecule itself; assay: SDS-PAGE under reducing and non-reducing conditions
[2] = molecular target: T1, mouse IGFLR1-Fc (extracellular domain of mouse IGFLR1 fused to human IgG1 Fc) (mouse, UniProt Q3U4N7 21-158); assay: SPR
T1 sequence (looked up): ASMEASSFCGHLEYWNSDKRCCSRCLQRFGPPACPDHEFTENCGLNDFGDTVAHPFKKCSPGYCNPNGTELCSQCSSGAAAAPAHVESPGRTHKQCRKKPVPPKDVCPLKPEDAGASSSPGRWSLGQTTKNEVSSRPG

B1: FLAG-IGFL1 (human insulin growth factor-like family member 1) (ligand)
chain: GAPVAPMTPYLMLCQPHKRCGDKFYDPLQHCCYDDAVVPLARTQTCGNCTFRVCFEQCCPWTFMVKLINQNCDSARTSDDRLCRSVS
- binding result [1]: binds

- Kd [2]: 0.15 nM
- koff [2]: 0.000157 s⁻¹
- kon [2]: 1.02e+06 M⁻¹ s⁻¹
B2: FLAG-mIGFL (mouse insulin growth factor-like protein) (ligand)
chain: ARKISTFSGPGSWPCNPKCDGRTYNPSEECCVHDTILPFKRINLCGPSCTYRPCFELCCPESYSPKKKFIVKLKVHGERSHCSSSPISRNCKSNKIFHGEDIEDNQLSLRKKSGDQP
- binding result [1]: binds

Reference: PMC3099712 (The Journal of Biological Chemistry, 2011)
